In the supplement of paper PMC9170038:

Test system: MS2 coat protein
Assay: apparent KD of MS2 coat protein; designed switch direction (-1 OFF switch, 1 ON switch): 1; higher = weaker reporter binding
Outline: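 SNAP-549-labelled MS2 coat protein was titrated, doubling from 0.7 or 1.5 nM to 3 µM, over designed RNA switches transcribed on Illumina chips by stalled E. coli RNA polymerase. Runs were done without input, with 200 uM small-molecule ligand, or with an oligonucleotide input. Apparent KD is the per-design median over clusters of curve-fitted normalised fluorescence.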

[1] = Eterna round: R95, input ligand: microRNA oligo, concentration not stated
[2] = input ligand: microRNA oligo, concentration not stated
[3] = Eterna round: R95, input ligand: FMN 200 uM
[4] = Eterna round: R95, input ligand: none

Sequence	apparent KD of MS2 coat protein [1]	apparent KD of MS2 coat protein (input ligand: FMN 200 uM)	apparent KD of MS2 coat protein [2]	apparent KD of MS2 coat protein (input ligand: none)	apparent KD of MS2 coat protein [3]	apparent KD of MS2 coat protein [4]
GAGAGACAUGAGGAUCACCCAUGUAGAAUAGAACAAGGAUAUGUGGAAGGCGGAGGAGAGACAGAAGGUGUAGGAG [JR_SS1_Sub055] (puzzle: Same State 1)	64 nM					
GAGAGAGGGUGAGGAUAUUCGGUGAUAAUGAUGGGAGAAGGCACAGACAUGAGGAUCACCCAUGUGGGAAUAAUCCAGAGAGAG [Parity 12 - Jieux - Same State NG 1] (Eterna round: R96, puzzle: Same State NG 1)		138 nM	83 nM	181 nM		
GAGGAACAUGAGGAUCACCCAUGUGGGAUGGGACAAGGAUAUGUAGGUAGAGGAGAAGAGACAGAAGGUGUAGGAG [JR_SS1_Sub052] (puzzle: Same State 1)	232 nM				349 nM	660 nM
GAGGAUGAUUUACAGGAUAUAUAGCAGAUGACAUGAGGAUCACCCAUGUAAGAGAAAGGAGGGAGAUAGAAGGGUAUGGGAGGUG [JR_SS2_Sub038] (puzzle: Same State 2)	35.4 nM				29.3 nM	43.5 nM
GAGGAUGAUUUACAGGAUAUAUAGGAGAUGACAUGAGGAUCACCCAUGUAGGAGAUAGGAGUGAGAUAGAAGGGUAAGUGAUGUG [JR_SS2_Sub43] (puzzle: Same State 2)	122 nM				58.9 nM	114 nM
GAGGGAUGAGCGUAGGAUAUAGGAGAAGUGACAUGAGGAUCACCCAUGUGGUAUGAGGGAUGAUUCUAGAAGGACGCGGUAGAAG [JR_SS2_Sub063] (puzzle: Same State 2)	399 nM				149 nM	373 nM
GAGGGCGAAAGCGACAUGAGGAUCACCCAUGUCCUCGGAGGGCAGGAUAUCCGGCAGUAGCCGAAGGAGAAGGGUCGAAAAGAA [AK SSNG3-V2-35.1] (Eterna round: R96, puzzle: Same State NG 3)		53.4 nM	35.7 nM	53.6 nM		
GAGUAGUCAAAAGGAUAUUGAUUAUUGUAGGAUCAAGAAGGUUUUAACAUGAGGAUCACCCAUGUAGGACUAUUCCUGUGUAUC [Parity 91 - Jieux - Same State NG 1] (Eterna round: R96, puzzle: Same State NG 1)			10.8 nM			
GAGUAGUUGAAAGGAUAUUGAUUAUUGUAGGAUCAAGAAGGUUUUAACAUGAGGAUCACCCAUGUAGGACUAUAUAUGUGAAUA [Parity 95 - Jieux - Same State NG 1] (Eterna round: R96, puzzle: Same State NG 1)		12.2 nM	12.3 nM	16 nM		
GAGUAGUUGAAAGGAUAUUGAUUGUUGUAGGAUCAAGAAGGUUCUAACAUGAGGAUCACCCAUGUAGGACUAUUCCUGUGUAUC [Parity 86 - Jieux - Same State NG 1] (Eterna round: R96, puzzle: Same State NG 1)		8.27 nM	8.09 nM	11.9 nM		
GAGUCAGAUCGAGGAUAUUUGUUAUGACGAUCCCACAUGAGGAUCACCCAUGUCCACGAUCCUCCAAAGAAGGUGAGGCUGGCG [Eternabot solution 32] (Eterna round: R96, puzzle: Same State NG 2)		202 nM	39.6 nM	88.2 nM		
GAGUGACAUGAGGAUCACCCAUGUAGAAUAGAACAAGGAUAUGUGGAAGGCGGAGGAGAGACAGAAGGUGUUGGAG [JR_SS1_Sub056] (puzzle: Same State 1)	51.2 nM				47.9 nM	88 nM
GAGUGGAGGUAAGGAUAUAUAAUGAUAAUCACAGUAGAAGGUACUAACAUGAGGAUCACCCAUGUAGGACUAUACCAGAGAGGG [Parity 45 - Jieux - Same State NG 1] (Eterna round: R96, puzzle: Same State NG 1)			11.9 nM			
GAGUGGCAGUUAGGAUAUAUAGUGAUAAUCACAAUAGAAGGAACAGACAUGAGGAUCACCCAUGUAGGACUAAUCCAGAGAGAG [Parity 37 - Jieux - Same State NG 1] (Eterna round: R96, puzzle: Same State NG 1)		19.2 nM	16.4 nM	23.4 nM		
GAGUGGUGGAGAGGAUAUACAUUGUUAUUCACUGUAGAAGGUUCUAACAUGAGGAUCACCCAUGUAGGACUAUUCCUGAGAGUU [Parity 55 - Jieux - Same State NG 1] (Eterna round: R96, puzzle: Same State NG 1)		13.1 nM	10.9 nM	14.2 nM		
GAGUUACAUGAGGAUCACCCAUGUUGUUUUGGAUAAGGAUAUAUGGUAGGAAGAGGAAUGAUAGAAGGUAUUAGGG [JR_SS1_Sub063] (Eterna round: R96, puzzle: Same State 1)		41.6 nM	26.8 nM	35.3 nM		

Sequence	apparent KD of MS2 coat protein [1]	apparent KD of MS2 coat protein (input ligand: FMN 200 uM)	apparent KD of MS2 coat protein [2]	apparent KD of MS2 coat protein (input ligand: none)	apparent KD of MS2 coat protein [3]	apparent KD of MS2 coat protein [4]
GAGUUACAUGAGGAUCACCCAUGUUGUUUUGGAUAAGGAUAUAUGGUAGGAAGAGGAAUGAUAGAAGGUAUUAGGG [JR_SS1_Sub063] (puzzle: Same State 1)	25.3 nM					
GAUAGACAUGAGGAUCACCCAUGUGACAAAACCACAGGAUAUCACACAGGAGUAACUGCGUGAGAAGGGUGAGACU [Edatinti] (puzzle: Same State 1)	13.4 nM				109 nM	32.4 nM
GCACAUGCACAUGAGGAUCACCCAUGUCCCGCGCCCAUUAGGGCGCGGUGGCCGCAAGUUUUUUGCUCGUCUUAUAA [BIOPHYS241_ElaineNg_2] (puzzle: Sensor for hsa-mir-208a version 2)	21.3 nM				29.4 nM	38.8 nM
GCAGGACGAUAAAACAUCUCACAUGAGGAUCACCCAUGUCGUGAGGAUAUGGAUCCUAAUUGGAUCCAGAAGGCAUGGUCCUGC [Fiskers NG3ss - 24] (Eterna round: R96, puzzle: Same State NG 3)		13.2 nM	13.1 nM	20.9 nM		
GCAGGGCCGGGCCCUGCAGACAUGAGGAUCACCCAUGUAACACAGGAUAUGACUGGGAUACCUGGUUAGAAGGGUGCGAAAGAA [Ustivetice] (Eterna round: R96, puzzle: Same State NG 3)		299 nM	645 nM	57.4 nM		
GCCAACAUGAGGAUCACCCAUGUCCGGAAGUGAAUUCAAAGUGAGGAUAUGGAGAGACCGAAAAUCCAGAAGGCACGCACAUGC [Eternabot solution 10] (Eterna round: R96, puzzle: Same State NG 3)		1500 nM	475 nM	1260 nM		
GCCAACUUAUGAGGAUAUGGCACCUUAUUGGUGCCAGAAGGCAUGUCAAUUGACAUGAGGAUCACCCAUGUAUUAUAGUUGGCA [Fiskers NG1ss - 21] (Eterna round: R96, puzzle: Same State NG 1)			326 nM			
GCCACACAUGAGGAUCACCCAUGUAAUUACAUGGGAGGAUAUCAGUGCUCGAAAGAGCACUGAGAAGGCCUGUGGC [SS1 - Omei A v3] (puzzle: Same State 1)	89.6 nM				134 nM	67.8 nM
GCCAUCCAGUGAGGAUAUGGCACCGAAACGGUGCCAGAAGGCAUGUCAAUUGACAUGAGGAUCACCCAUGUAUUAUGGAUGGCA [Mat - Same State NG 1 - JL mod - D85] (Eterna round: R96, puzzle: Same State NG 1)		102 nM	694 nM	695 nM		
GCCAUCGCAUGAGGAUAUGGCACCGUUUCGGUGCCAGAAGGCAUGUCAAUUGACAUGAGGAUCACCCAUGUAUUAUUGAUGGCA [JL Fiskers NG1ss - 33 mod 7] (Eterna round: R96, puzzle: Same State NG 1)		55.6 nM	448 nM	860 nM		
GCCAUCGCAUGAGGAUAUGGCACCGUUUCGGUGCCAGAAGGCAUGUCAUAAGACAUGAGGAUCACCCAUGUAGUUAAGAUGGCA [JL Fiskers NG1ss - 33 mod 8] (Eterna round: R96, puzzle: Same State NG 1)		31.4 nM	521 nM	751 nM		
GCCAUCGUAUGAGGAUAUGGCACCGAAACGGUGCCAGAAGGCAUGUCAAUAGACAUGAGGAUCACCCAUGUAUUAUCGAUGGCA [Mat - Same State NG 1 - JL mod - D90] (Eterna round: R96, puzzle: Same State NG 1)			278 nM			
GCCGGACAUGAGGAUCACCCAUGUCCUCACUAUACAGGAUAUCGGGUAGGAUCCCUACGGCGAGAAGGGUAUAAAA [Inarquat] (puzzle: Same State 1)	32.2 nM				34.2 nM	22.1 nM
GCGAAAGCGGUAGGAUAUCUAGGAUAUGGGAAGGACUAAGUCUGGAGGUCACCUCACCCAGAAGGAGAGAAGGACACCGAAAGG [pwkr ssNG2 2FMN + F9.1] (Eterna round: R96, puzzle: Same State NG 2)		534 nM	204 nM	42.6 nM		
GCGAAGAGGUAAGGAUAUGCAUGGCGUAGACAUGAGGAUCACCCAUGUAGGAGACGAAUUAGAAGGGAGAAGGUACCAGGACGC [AK SSNG2-V2-17.1] (Eterna round: R96, puzzle: Same State NG 2)		939 nM	699 nM	746 nM		
